± gives the standard deviation.
Assay: protein stability index of a GFP-peptide fusion (GPS, HEK-293T) (PSI 1-6); higher = more stable
Details: c terminus: a fixed tail appended
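Note: 24-mer peptide tiles fused after GFP, lentivirally expressed, FACS-sorted into six equal bins by GFP/DsRed ratio, decoded by Illumina sequencing, PSI is the read-weighted mean bin number.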

Sequence VKRRRTASLSNQECQLYPRRSQQQ [SNURF] has a protein stability index (treatment: DMSO) of 4.43 ± 0.18 and a protein stability index (treatment: MLN4924 1 uM, 8 h) of 4.45 ± 0.19.
VKSNTEQMREAFATAFSKLKPESS [ZBED1] gave a protein stability index (treatment: DMSO) of 4.34 ± 0.24 and a protein stability index (treatment: MLN4924 1 uM, 8 h) of 4.27 ± 0.18.
For VKTWFQNQRMKSKRWQKNNWPKNS [NANOGP8], the protein stability index (treatment: DMSO) was 2.21 ± 0.57 and the protein stability index (treatment: MLN4924 1 uM, 8 h) was 2.42 ± 0.38.
For VKVTFNKQDSLVILTIMATLKIRN [TMEM106C], the protein stability index (treatment: DMSO) was 2.92 ± 0.53 and the protein stability index (treatment: MLN4924 1 uM, 8 h) was 2.89 ± 0.32.
Sequence VLSLKEGAREEDLDAVEAQIGCKL [FBXO3] has a protein stability index (treatment: DMSO) of 5.24 ± 0.49 and a protein stability index (treatment: MLN4924 1 uM, 8 h) of 4.6 ± 0.25.
VLSNMEKLFCIPVHGIRSVGTAAV [IMPA1] showed a protein stability index (treatment: DMSO) of 2.09 ± 0.47 and a protein stability index (treatment: MLN4924 1 uM, 8 h) of 2.12 ± 0.059.
Work on VLSRLQDAAVVRPGFLSTAEEETL [ALKBH7] yielded a protein stability index (treatment: DMSO) of 4.21 ± 0.17 and a protein stability index (treatment: MLN4924 1 uM, 8 h) of 4.12 ± 0.55.
In the case of VLTAVDGGTPARSGTTLISVIVLD [PCDHGC5], the protein stability index (treatment: DMSO) is reported as 2.34 ± 0.47 and the protein stability index (treatment: MLN4924 1 uM, 8 h) is reported as 2.26 ± 0.22.
Work on VLVLAVQVHAWQLYYSKKLLDSWF [JAGN1] yielded a protein stability index (treatment: DMSO) of 3.23 ± 0.49 and a protein stability index (treatment: MLN4924 1 uM, 8 h) of 3.06 ± 0.91.
Work on VLYTDKTYAMGHLIQRKKVHVFGD [TNFSF13B] yielded a protein stability index (treatment: DMSO) of 2.28 ± 0.14 and a protein stability index (treatment: MLN4924 1 uM, 8 h) of 2.51 ± 0.41.
VNEFGMSGEDPTAAAPVAEVPTAA [CLPTM1] showed a protein stability index (treatment: DMSO) of 5.49 ± 0.26 and a protein stability index (treatment: MLN4924 1 uM, 8 h) of 5.39 ± 0.19.
VNEKLPQREGTGKTVSLQIFSVLN [SMOC2] showed a protein stability index (treatment: DMSO) of 2.7 ± 0.37 and a protein stability index (treatment: MLN4924 1 uM, 8 h) of 2.84 ± 0.4.
Sequence VNSSIKTFFCPNDTYNDMATLFFN [CLCN6] has a protein stability index (treatment: DMSO) of 2.13 ± 0.31 and a protein stability index (treatment: MLN4924 1 uM, 8 h) of 2.26 ± 0.14.
Work on VNVTIHFRLKTINLQSLINNEIPD [MCOLN1] yielded a protein stability index (treatment: DMSO) of 3.28 ± 0.25 and a protein stability index (treatment: MLN4924 1 uM, 8 h) of 3.21 ± 0.25.
For VPMILVGNKCDLEDERVVGKEQGQ [RAP1B], the protein stability index (treatment: DMSO) was 4.56 ± 0.35 and the protein stability index (treatment: MLN4924 1 uM, 8 h) was 4.72 ± 0.39.
Work on VPVRRPARRRQSAGPWPRPKGSLS [RASAL3] yielded a protein stability index (treatment: DMSO) of 4.73 ± 0.25 and a protein stability index (treatment: MLN4924 1 uM, 8 h) of 4.68 ± 0.23.
For VQRLQAYTATEQEMQQQMSLGELC [TRIM14], the protein stability index (treatment: DMSO) was 4 ± 0.077 and the protein stability index (treatment: MLN4924 1 uM, 8 h) was 3.9 ± 0.21.
In the case of VQSEIFLHESYCMDTSHQPLLPAP [LYSMD4], the protein stability index (treatment: DMSO) is reported as 2.93 ± 0.23 and the protein stability index (treatment: MLN4924 1 uM, 8 h) is reported as 2.76 ± 0.28.
For VRAWDLETGKLLWKVRYDTFIVSC [WDR88], the protein stability index (treatment: DMSO) was 2.67 ± 0.069 and the protein stability index (treatment: MLN4924 1 uM, 8 h) was 2.11 ± 0.48.
For VRNDSCVVHEDFREDILSCYDVYS [PKD2L1], the protein stability index (treatment: DMSO) was 2.99 ± 0.34 and the protein stability index (treatment: MLN4924 1 uM, 8 h) was 3.16 ± 0.28.
Work on VRSQTLPRTSEAQARKALFEKWEQ [SMTNL2] yielded a protein stability index (treatment: DMSO) of 3.98 ± 0.28 and a protein stability index (treatment: MLN4924 1 uM, 8 h) of 4.16 ± 0.47.
VTEDLRLKDWEHSIALRNISLAKG [SCARA5] showed a protein stability index (treatment: DMSO) of 3.5 ± 0.26 and a protein stability index (treatment: MLN4924 1 uM, 8 h) of 3.59 ± 0.39.
Sequence VTGMELEFKRLASSKAHTSRFISA [PTPRD] has a protein stability index (treatment: DMSO) of 2.71 ± 0.33 and a protein stability index (treatment: MLN4924 1 uM, 8 h) of 2.81 ± 0.4.
With VTQDGRKIYFTDSSSKWQRRDYLL [APMAP] the protein stability index (treatment: DMSO) was 2.51 ± 0.18 and the protein stability index (treatment: MLN4924 1 uM, 8 h) was 2.41 ± 0.63.
In the case of VTSQATLLTITKAHSNAISNCCFT [WDR88], the protein stability index (treatment: DMSO) is reported as 2.3 ± 0.55 and the protein stability index (treatment: MLN4924 1 uM, 8 h) is reported as 2.18 ± 0.28.
With VVCASYEDYGHWLLCLRAVTHREG [PLEKHN1] the protein stability index (treatment: DMSO) was 2.52 ± 0.56 and the protein stability index (treatment: MLN4924 1 uM, 8 h) was 2.62 ± 0.49.
Work on VVEVENFLFVLGGEDQWNPNGKHS [KLHL14] yielded a protein stability index (treatment: DMSO) of 2.39 ± 0.31 and a protein stability index (treatment: MLN4924 1 uM, 8 h) of 2.37 ± 0.19.
In the case of VVEVTKGILEHVDSASPVEDTSND [M1AP], the protein stability index (treatment: DMSO) is reported as 5.54 ± 0.23 and the protein stability index (treatment: MLN4924 1 uM, 8 h) is reported as 5.47 ± 0.31.
Sequence VVVESMEQDRIPEVHVPPSSAVSG [MIA2] has a protein stability index (treatment: DMSO) of 4.45 ± 0.36 and a protein stability index (treatment: MLN4924 1 uM, 8 h) of 4.48 ± 0.2.
In the case of VYFKRFYARYSLKSIDPVLMAPTC [CCNC], the protein stability index (treatment: DMSO) is reported as 3.11 ± 1.3 and the protein stability index (treatment: MLN4924 1 uM, 8 h) is reported as 2.13 ± 0.32.
VYMTEPIDEYCVQQLKEFDGKSLV [HSP90AB1] gave a protein stability index (treatment: DMSO) of 3.06 ± 0.15 and a protein stability index (treatment: MLN4924 1 uM, 8 h) of 3.29 ± 0.25.
Sequence WFGASVLSLLELLELLLDASALTL [SCNN1D] has a protein stability index (treatment: DMSO) of 2.54 ± 0.74 and a protein stability index (treatment: MLN4924 1 uM, 8 h) of 2.15 ± 0.31.
WFQDPTRFTGTMDAFVKIVRHEGT [SLC25A39] gave a protein stability index (treatment: DMSO) of 2.17 ± 0.25 and a protein stability index (treatment: MLN4924 1 uM, 8 h) of 2.23 ± 0.37.
Work on WMLTRKQFGLLSFFFAVLHAIYSL [STEAP1] yielded a protein stability index (treatment: DMSO) of 1.95 ± 0.54 and a protein stability index (treatment: MLN4924 1 uM, 8 h) of 2.1 ± 0.27.
Work on WQDSDTVKLLVDLELSYGFENGQK [TOR1AIP2] yielded a protein stability index (treatment: DMSO) of 2.7 ± 0.37 and a protein stability index (treatment: MLN4924 1 uM, 8 h) of 2.65 ± 0.49.
With WTSFICDTYIVLAWISKIKGSPDV [SMIM2] the protein stability index (treatment: DMSO) was 3.52 ± 0.58 and the protein stability index (treatment: MLN4924 1 uM, 8 h) was 2.53 ± 0.38.
YCESHAKARVKPPEGYDVVAVYPN [PDLIM4] gave a protein stability index (treatment: DMSO) of 3.74 ± 0.38 and a protein stability index (treatment: MLN4924 1 uM, 8 h) of 4.08 ± 0.25.
With YDLEYWAFHDGQRSRLRPRDDLDR [TRIM14] the protein stability index (treatment: DMSO) was 3.52 ± 0.36 and the protein stability index (treatment: MLN4924 1 uM, 8 h) was 3.69 ± 0.34.
Sequence YDPNYMSPFAQFACDNGLNVRGGK [PPTC7] has a protein stability index (treatment: DMSO) of 3.63 ± 1 and a protein stability index (treatment: MLN4924 1 uM, 8 h) of 4.11 ± 0.43.
In the case of YEAGQVTLHNAQTQEPIFTFTASF [TRIM15], the protein stability index (treatment: DMSO) is reported as 2.38 ± 0.17 and the protein stability index (treatment: MLN4924 1 uM, 8 h) is reported as 2.11 ± 0.15.
For YERSFIHKIKHKHILAKNYFSQVP [IQUB], the protein stability index (treatment: DMSO) was 2.12 ± 0.61 and the protein stability index (treatment: MLN4924 1 uM, 8 h) was 2.24 ± 0.27.
YFLLCDVLPEDRILREELQKQRLR [ZNF277] gave a protein stability index (treatment: DMSO) of 2.37 ± 0.3 and a protein stability index (treatment: MLN4924 1 uM, 8 h) of 2.28 ± 0.54.
Sequence YIESSTKVYDDMAFRYLSWILFPL [CLPTM1] has a protein stability index (treatment: DMSO) of 2.73 ± 0.13 and a protein stability index (treatment: MLN4924 1 uM, 8 h) of 2.61 ± 0.47.
YIPSSYVDSHHEYPAMTFYSPAVM [ESR2] gave a protein stability index (treatment: DMSO) of 2.73 ± 0.93 and a protein stability index (treatment: MLN4924 1 uM, 8 h) of 2.6 ± 0.45.
YIYYNEKYGGPNHHLPLPDNWKSQ [CPN1] gave a protein stability index (treatment: DMSO) of 2.46 ± 0.75 and a protein stability index (treatment: MLN4924 1 uM, 8 h) of 2.35 ± 0.37.

Source: the supplement of paper PMC10567573
